One assay has as its target CD3 (human). The assay is described as follows: CD3 binding, as described in Example 2 (ELISA or FCM). (In general: ELISA stands for enzyme-linked immunosorbent assay.)
The target in the next assay is T1, B7H3 (human, UniProt Q5ZPR3 29-466, limits assumed).
T1 construct: Tumor associated antigen; also called huB7H3
T1 sequence (looked up): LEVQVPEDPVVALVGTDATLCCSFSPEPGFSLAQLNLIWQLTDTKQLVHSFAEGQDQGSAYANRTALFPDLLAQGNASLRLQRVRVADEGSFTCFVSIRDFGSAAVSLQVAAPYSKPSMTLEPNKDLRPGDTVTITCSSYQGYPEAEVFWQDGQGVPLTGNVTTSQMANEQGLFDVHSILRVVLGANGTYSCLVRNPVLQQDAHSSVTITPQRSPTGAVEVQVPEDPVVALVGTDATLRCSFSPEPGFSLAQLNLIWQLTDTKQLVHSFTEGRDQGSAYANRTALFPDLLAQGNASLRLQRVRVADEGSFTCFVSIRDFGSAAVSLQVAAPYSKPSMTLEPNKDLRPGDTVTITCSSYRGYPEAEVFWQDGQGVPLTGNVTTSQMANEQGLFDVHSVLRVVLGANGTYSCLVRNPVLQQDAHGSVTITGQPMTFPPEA
The assay is described as follows: FCM or ELISA.

The values that follow come from patent US20250388669A1 (published 2025).

CD3 (human), sequence (chain, as listed by the source): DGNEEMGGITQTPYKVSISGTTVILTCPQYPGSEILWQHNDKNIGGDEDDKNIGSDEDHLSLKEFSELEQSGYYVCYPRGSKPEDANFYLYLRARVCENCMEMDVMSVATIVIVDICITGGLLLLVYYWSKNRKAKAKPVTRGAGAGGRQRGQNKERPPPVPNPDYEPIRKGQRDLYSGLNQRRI

B1: Ly1965 (bispecific antibody)
chain 1: QVQLVQSGAEVKKPGASVKVSCKASGYTFTSYVMHWVRQKPGQGLEWIGYINPYNEGTESTDKFKGRATMTSDKSTSTVYMELSSLRSEDTAVYYCASIYYGYEGTYFGVWGQGTLVTVSSASTKGPSVFPLAPSSKSTSGGTAALGCLVKDYFPEPVTVSWNSGALTSGVHTFPAVLQSSGLYSLSSVVTVPSSSLGTQTYICNVNHKPSNTKVDKKVEPKSCGGGGSGGGGSGGGGSGGGGSEVQLVESGGGLVQPGGSLRLSCAASGFTFSTYAMNWVRQAPGKGLEWVGRIRSKYNNYATYYADSVKGRFTISRDDSKNSLYLQMNSLKTEDTAVYYCVRHGNFGNSYVSWFAYWGQGTLVTVSSGGGGSDKTHTCPPCPAPEAAGPSVFLFPPKPKDTLMISRTPEVTCVVVDVSHEDPEVKFNWYVDGVEVHNAKTKPREEQYNSTYRVVSVLTVLHQDWLNGKEYKCKVSNKALPAPIEKTISKAKGQPREPQVYTLPPSREEMTKNQVSLWCLVKGFYPSDIAVEWESNGQPENNYKTTPPVLDSDGSFFLYSKLTVDKSRWQQGNVFSCSVMHEALHNHYTQKSLSLSPG
chain 2: QVQLVQSGAEVKKPGASVKVSCKASGYTFTSYVMHWVRQKPGQGLEWIGYINPYNEGTESTDKFKGRATMTSDKSTSTVYMELSSLRSEDTAVYYCASIYYGYEGTYFGVWGQGTLVTVSSASTKGPSVFPLAPSSKSTSGGTAALGCLVKDYFPEPVTVSWNSGALTSGVHTFPAVLQSSGLYSLSSVVTVPSSSLGTQTYICNVNHKPSNTKVDKKVEPKSCGGGGSGGGGSGGGGSGGGGSQAVVTQEPSLTVSPGGTVTLTCRSSTGAVTTSNYANWVQQKPGQAPRGLIGGTNKRAPWTPARFSGSLLGGKAALTITGAQAEDEADYYCALWYSNLWVFGGGTKLTVLGGGGSDKTHTCPPCPAPEAAGPSVFLFPPKPKDTLMISRTPEVTCVVVDVSHEDPEVKFNWYVDGVEVHNAKTKPREEQYNSTYRVVSVLTVLHQDWLNGKEYKCKVSNKALPAPIEKTISKAKGQPREPQVYTLPPSREEMTKNQVSLSCAVKGFYPSDIAVEWESNGQPENNYKTTPPVLDSDGSFFLVSKLTVDKSRWQQGNVFSCSVMHEALHNRFTQKSLSLSPG
light: EIVLTQSPATLSLSPGERATLSCRASSSVSYMHWYQQKPGQAPRPWIYATSNLASGIPARFSGSRSGTDYTLTISSLEPEDFAVYYCQQWSSNTLTFGGGTKVEIKRTVAAPSVFIFPPSDEQLKSGTASVVCLLNNFYPREAKVQWKVDNALQSGNSQESVTEQDSKDSTYSLSSTLTLSKADYEKHKVYACEVTHQGLSSPVTKSFNRGEC
notes: B7H3 Fabs, central CD3 Fv
As a reminder, the EC50 is the concentration that produces a half-maximal response. Low values mean an effect from little substance, high ones a need for much substance. Take B1: in the assay with CD3, the EC50 came out at 0.419 µg/mL.

B2: Ly2424 (bispecific antibody, human IgG1, kappa)
chain 1: not shown
chain 2: QVQLVQSGAEVKKPGASVKVSCKASGYTFTSYVMHWVRQKPGQGLEWIGYINPYNEGTESTDKFKGRATMTSDKSTSTVYMELSSLRSEDTAVYYCASIYYGYEGTYFGVWGQGTLVTVSSASTKGPSVFPLAPSSKSTSGGTAALGCLVKDYFPEPVTVSWNSGALTSGVHTFPAVLQSSGLYSLSSVVTVPSSSLGTQTYICNVNHKPSNTKVDKKVEPKSCDKTHTCPPCPAPEAAGPSVFLFPPKPKDTLMISRTPEVTCVVVDVSHEDPEVKFNWYVDGVEVHNAKTKPREEQYNSTYRVVSVLTVLHQDWLNGKEYKCKVSNKALPAPIEKTISKAKGQPREPQVYTLPPSREEMTKNQVSLSCAVKGFYPSDIAVEWESNGQPENNYKTTPPVLDSDGSFFLVSKLTVDKSRWQQGNVFSCSVMHEALHNRFTQKSLSLSPGGGGGSGGGGSGGGGSGGGGSDIQMTQSPSSVSASVGDRVTITCRASQGIYSWLAWYQQKPGKAPNLLIYTASTLQSGVPSRFSGSGSGTDFTLTISSLQPEDFATYYCQQANIFPLTFGGGTKVEIK
light: B1 light
notes: B7H3/CD40: two B7H3 Fabs, terminal CD40 Fv (TM383)
For B2, the binding result in the assay with B7H3 is reported as “binds”.

B3: Ly2434 (bispecific antibody, human IgG1, kappa)
chain 1: QVQLVQSGAEVKKPGASVKVSCKASGYTFTSYVMHWVRQKPGQGLEWIGYINPYNEGTESTDKFKGRATMTSDKSTSTVYMELSSLRSEDTAVYYCASIYYGYEGTYFGVWGQGTLVTVSSASTKGPSVFPLAPSSKSTSGGTAALGCLVKDYFPEPVTVSWNSGALTSGVHTFPAVLQSSGLYSLSSVVTVPSSSLGTQTYICNVNHKPSNTKVDKKVEPKSCDKTHTCPPCPAPEAAGPSVFLFPPKPKDTLMISRTPEVTCVVVDVSHEDPEVKFNWYVDGVEVHNAKTKPREEQYNSTYRVVSVLTVLHQDWLNGKEYKCKVSNKALPAPIEKTISKAKGQPREPQVYTLPPSREEMTKNQVSLWCLVKGFYPSDIAVEWESNGQPENNYKTTPPVLDSDGSFFLYSKLTVDKSRWQQGNVFSCSVMHEALHNHYTQKSLSLSPGGGGGSGGGGSGGGGSGGGGSEVQLVESGGGLVQPGGSLRLSCAASGFTFTNYGLHWVRQAPGKGLEWVSSISPSGGVTYYRDSVKGRFTISRDNSKNTLYLQMNSLRAEDTAVYYCAKPFLGWGGANWIAHWGQGTLVTVSS
chain 2: QVQLVQSGAEVKKPGASVKVSCKASGYTFTSYVMHWVRQKPGQGLEWIGYINPYNEGTESTDKFKGRATMTSDKSTSTVYMELSSLRSEDTAVYYCASIYYGYEGTYFGVWGQGTLVTVSSASTKGPSVFPLAPSSKSTSGGTAALGCLVKDYFPEPVTVSWNSGALTSGVHTFPAVLQSSGLYSLSSVVTVPSSSLGTQTYICNVNHKPSNTKVDKKVEPKSCDKTHTCPPCPAPEAAGPSVFLFPPKPKDTLMISRTPEVTCVVVDVSHEDPEVKFNWYVDGVEVHNAKTKPREEQYNSTYRVVSVLTVLHQDWLNGKEYKCKVSNKALPAPIEKTISKAKGQPREPQVYTLPPSREEMTKNQVSLSCAVKGFYPSDIAVEWESNGQPENNYKTTPPVLDSDGSFFLVSKLTVDKSRWQQGNVFSCSVMHEALHNRFTQKSLSLSPGGGGGSGGGGSGGGGSGGGGSDIQMTQSPSSLSASVGDRVTITCLASEDISNDLAWYQQKPGKAPKLLIYFVDRLLDGVPSRFSGSGSGTDFTLTISSLQPEDFATYYCQQSYKYPPTFGQGTKLEIK
light: B1 light
notes: B7H3/CD40: two B7H3 Fabs, terminal CD40 Fv (TM559)
Take B3: the binding result with B7H3 is recorded as “binds”.

B4: Ly2428 (bispecific antibody)
chain 1: QVQLVQSGAEVKKPGASVKVSCKASGYTFTSYVMHWVRQKPGQGLEWIGYINPYNEGTESTDKFKGRATMTSDKSTSTVYMELSSLRSEDTAVYYCASIYYGYEGTYFGVWGQGTLVTVSSASTKGPSVFPLAPSSKSTSGGTAALGCLVKDYFPEPVTVSWNSGALTSGVHTFPAVLQSSGLYSLSSVVTVPSSSLGTQTYICNVNHKPSNTKVDKKVEPKSCGGGGSGGGGSGGGGSGGGGSEVQLVESGGGLVQPGGSLRLSCAASGFTFTNYGLHWVRQAPGKGLEWVSSISPSGGVTYYRDSVKGRFTISRDNSKNTLYLQMNSLRAEDTAVYYCAKPFLGWGGANWIAHWGQGTLVTVSSGGGGSDKTHTCPPCPAPEAAGPSVFLFPPKPKDTLMISRTPEVTCVVVDVSHEDPEVKFNWYVDGVEVHNAKTKPREEQYNSTYRVVSVLTVLHQDWLNGKEYKCKVSNKALPAPIEKTISKAKGQPREPQVYTLPPSREEMTKNQVSLWCLVKGFYPSDIAVEWESNGQPENNYKTTPPVLDSDGSFFLYSKLTVDKSRWQQGNVFSCSVMHEALHNHYTQKSLSLSPG
chain 2: QVQLVQSGAEVKKPGASVKVSCKASGYTFTSYVMHWVRQKPGQGLEWIGYINPYNEGTESTDKFKGRATMTSDKSTSTVYMELSSLRSEDTAVYYCASIYYGYEGTYFGVWGQGTLVTVSSASTKGPSVFPLAPSSKSTSGGTAALGCLVKDYFPEPVTVSWNSGALTSGVHTFPAVLQSSGLYSLSSVVTVPSSSLGTQTYICNVNHKPSNTKVDKKVEPKSCGGGGSGGGGSGGGGSGGGGSDIQMTQSPSSLSASVGDRVTITCLASEDISNDLAWYQQKPGKAPKLLIYFVDRLLDGVPSRFSGSGSGTDFTLTISSLQPEDFATYYCQQSYKYPPTFGQGTKLEIKGGGGSDKTHTCPPCPAPEAAGPSVFLFPPKPKDTLMISRTPEVTCVVVDVSHEDPEVKFNWYVDGVEVHNAKTKPREEQYNSTYRVVSVLTVLHQDWLNGKEYKCKVSNKALPAPIEKTISKAKGQPREPQVYTLPPSREEMTKNQVSLSCAVKGFYPSDIAVEWESNGQPENNYKTTPPVLDSDGSFFLVSKLTVDKSRWQQGNVFSCSVMHEALHNRFTQKSLSLSPG
light: B1 light
notes: B7H3/CD40: two B7H3 Fabs, central CD40 Fv (TM559)
Consider B4, for which the binding result in the assay with B7H3 was “binds”.

B5: Ly305 (antibody, V domains shown)
VH: EVQLVESGGGLVQPGGSLRLSCAASGFTFSTYAMNWVRQAPGKGLEWVGRIRSKYNNYATYYADSVKGRFTISRDDSKNSLYLQMNSLKTEDTAVYYCVRHGNFGNSYVSWFAYWGQGTLVTVSS
VL: QAVVTQEPSLTVSPGGTVTLTCRSSTGAVTTSNYANWVQQKPGQAPRGLIGGTNKRAPWTPARFSGSLLGGKAALTITGAQAEDEADYYCALWYSNLWVFGGGTKLTVL
notes: Parent mAb; also called Anti-CD3 Ly305; parent anti-CD3 mAb
B5: it took 0.03 µg/mL to reach a half-maximal effect with CD3 (EC50).
